Values joined by “and” are separate entries in the source; they are usually repeats but may differ in a detail not shown here. Equal entries are not always repeated.
Legend:
[1] = target: Non-glycosylated recombinant human GM-CSF expressed in E. coli (human) (UniProt P04141); test: ELISA on GM-CSF-coated wells, non-glycosylated GM-CSF, exp 2
[2] = target: Non-glycosylated recombinant human GM-CSF expressed in E. coli (human) (UniProt P04141); test: ELISA on GM-CSF-coated wells, non-glycosylated GM-CSF, exp 1
[3] = target: Non-glycosylated recombinant human GM-CSF expressed in E. coli (human) (UniProt P04141); test: cell-based or functional assay
[4] = target: Glycosylated recombinant human GM-CSF expressed from human 293 cells (human) (UniProt P04141); test: SPR (Biacore 3000) at 37 °C, antibody captured on anti-human F(ab')2, GM-CSF as analyte, 1:1 global fit
[5] = target: Glycosylated recombinant human GM-CSF expressed from human 293 cells (human) (UniProt P04141); test: ELISA on GM-CSF-coated wells, glycosylated GM-CSF, exp 1

EC50 [1]: 0.433 nM
EC50 [2]: 0.4 nM
IC50 for inhibition of GM-CSF induced IL-8 expression (U937 cells), experiment C [3]: 2.2 nM and 343 ng/ml
Kd [4]: 0.0305 nM
koff [4]: 2.2e-05 s⁻¹
kon [4]: 720000 M⁻¹ s⁻¹
EC50 [5]: 0.387 nM
Substance: Ab2, chimeric IgG1k antibody having variable regions from the mouse antibody LMM102

From patent US20150344565A1
